Assay results from publication doi:10.1101/071829.
Like-named read-outs stand apart in the source and are kept apart here.

Experiments:
Experiment in all cases: SEC
[1] = target: C. difficile replicative helicase CD3657, purified non-tagged (Clostridium difficile 630)
[2] = target: C. difficile replicative helicase CD3657, purified non-tagged (Clostridium difficile 630); remark: listed apart in the source
[3] = target: C. difficile replicative helicase CD3657, purified non-tagged (Clostridium difficile 630); remark: listed apart in the source
[4] = target: C. difficile putative helicase loader ATPase CD3654, purified non-tagged (Clostridium difficile 630)

C. difficile replicative helicase CD3657, purified non-tagged (enzyme)
stoichiometry N [1]: 6
stoichiometry N [2]: 6
stoichiometry N [3]: 6
stoichiometry N (CD3657 per CD3654 (6:6)) [4]: 1
